In patent US20190338038A1 (CELLERANT THERAPEUTICS, published 2019):
Where two headings read alike, the source gives them in different places.

Tests used:
[1] = target: human interleukin 1 receptor accessory protein, membrane-bound form on cells (human) (UniProt Q9NPH3); assay: flow cytometry on primary AML sample 13-AML-02 PB, antibody at 2 ug/mL per paragraph 390
[2] = target: T1, human interleukin 1 receptor accessory protein, membrane-bound form on cells (human, UniProt Q9NPH3 21-570); assay: FACS on EOL-1 cells, FITC; antibody concentration not given
T1 construct: On IL1-RAP-transfected 293 cells, AML cell lines (EOL-1, HNT-34, OCI-AML2, OCI-AML3), primary AML cells and HEK-Blue IL-1β cells; also called IL1-RAP; receptor IL1-RAP
T1 sequence: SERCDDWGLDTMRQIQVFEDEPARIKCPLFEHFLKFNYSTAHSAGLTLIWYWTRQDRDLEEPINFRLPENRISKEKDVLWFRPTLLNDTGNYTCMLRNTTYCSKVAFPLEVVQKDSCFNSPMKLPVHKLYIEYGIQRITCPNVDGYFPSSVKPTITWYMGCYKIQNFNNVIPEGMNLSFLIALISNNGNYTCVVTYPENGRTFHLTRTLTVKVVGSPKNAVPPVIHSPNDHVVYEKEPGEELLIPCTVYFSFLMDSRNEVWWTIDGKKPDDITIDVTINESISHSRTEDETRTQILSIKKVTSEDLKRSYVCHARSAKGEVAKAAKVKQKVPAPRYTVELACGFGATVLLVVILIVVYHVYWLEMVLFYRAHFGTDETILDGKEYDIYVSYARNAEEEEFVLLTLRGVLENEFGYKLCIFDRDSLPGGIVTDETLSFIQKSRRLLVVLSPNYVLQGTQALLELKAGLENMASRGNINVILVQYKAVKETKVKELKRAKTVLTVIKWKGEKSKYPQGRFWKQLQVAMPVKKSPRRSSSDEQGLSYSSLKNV

[3] = target: T1, human interleukin 1 receptor accessory …; assay: FACS titration on EOL-1 cells
[4] = target: T1, human interleukin 1 receptor accessory …; assay: FACS titration on IL1-RAP transfected 293 cells
[5] = target: T1, human interleukin 1 receptor accessory …; assay: FACS titration on HNT-34 cells in PBS, no competitor
[6] = target: T1, human interleukin 1 receptor accessory …; assay: FACS titration on HNT-34 cells
[7] = target: T2, recombinant mouse IL1-RAP (mouse, UniProt Q61730 21-359, limits assumed); assay: FACS (GeoMean), bar series mIL1RAP
T2 sequence (looked up): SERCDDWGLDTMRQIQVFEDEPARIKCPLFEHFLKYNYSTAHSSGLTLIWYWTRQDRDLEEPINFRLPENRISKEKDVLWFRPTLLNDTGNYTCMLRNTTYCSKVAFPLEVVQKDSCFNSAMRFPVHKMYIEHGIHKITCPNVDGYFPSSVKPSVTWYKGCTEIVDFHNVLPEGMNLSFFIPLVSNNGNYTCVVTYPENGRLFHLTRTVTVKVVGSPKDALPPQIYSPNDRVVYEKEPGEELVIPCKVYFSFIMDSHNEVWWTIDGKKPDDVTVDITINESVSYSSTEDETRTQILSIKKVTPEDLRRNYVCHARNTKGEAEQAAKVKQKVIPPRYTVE

[8] = target: human interleukin 1 receptor accessory protein, membrane-bound form on cells (human) (UniProt Q9NPH3); assay: FACS on EOL-1 cells, FITC; antibody concentration not given
[9] = target: T1, human interleukin 1 receptor accessory …; assay: cell-based or functional assay
[10] = target: T1, human interleukin 1 receptor accessory …; assay: cell-based or functional assay; remark: listed apart in the source
[11] = target: T3, IL1-RAP (antigen of the kinetic measurements of Tables 5A and 5B) (human, UniProt Q9NPH3 21-359, limits assumed); assay: kinetics, Table 5A; method and antigen form not stated
T3 sequence: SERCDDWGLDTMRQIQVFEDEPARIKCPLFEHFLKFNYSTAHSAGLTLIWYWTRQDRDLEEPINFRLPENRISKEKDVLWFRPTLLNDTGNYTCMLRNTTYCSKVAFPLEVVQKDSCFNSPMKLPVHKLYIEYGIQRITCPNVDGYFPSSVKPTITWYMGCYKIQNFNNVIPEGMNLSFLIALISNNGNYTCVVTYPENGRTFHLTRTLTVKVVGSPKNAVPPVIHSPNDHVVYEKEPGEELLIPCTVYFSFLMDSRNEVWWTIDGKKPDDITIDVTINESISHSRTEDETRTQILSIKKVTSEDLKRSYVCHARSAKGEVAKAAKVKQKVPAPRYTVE

[12] = target: T3, IL1-RAP (antigen of the kinetic …); assay: kinetics, Table 5B; method and antigen form not stated

mIgG (antibody)
% of cells in the upper right quadrant (CD34 APC high, stain positive) [1]: 1.57%

B1: h54.9D7 HC2 / Chi54.9D7 LC#1 (antibody, V domains shown)
VH: QVQLVQSGAEVKKPGASVKVSCKASGYIFITYWMNWVRQAPGQGLEWVGQIFPASGTTYYAQKFQGRVTMTVDTSTSTVYMELSSLRSEDTAVYYCARTDFYRYDGGYALDYWGQGTLVTVSS
VL: DIVLTQSPISLAVFLGQRATISCRASQSVSTSGYSSMHWYQQKAGQPPKLLIKYASDLESGVPVRFSGSGSGTDFILNIHPVEVEDIATYYCHHSWGIPMYTFGGGTKLEIKR
notes: also called humanized 54.9D7 HC2 with the chimeric light chain
MFI [2]: 75.1

B2: h54.9D7 HC3 / Chi54.9D7 LC#1 (antibody, V domains shown)
VH: QVQLVQSGAEVKKPGASVKLSCKASGYIFITYWMNWVRQAPGQGLEWVGQIFPASGTTYYAQKFQGRATLTVDTSTSTAYMELSSLRSEDTAVYYCARTDFYRYDGGYALDYWGQGTLLTVSS
VL: DIVLTQSPISLAVFLGQRATISCRASQSVSTSGYSSMHWYQQKAGQPPKLLIKYASDLESGVPVRFSGSGSGTDFILNIHPVEVEDIATYYCHHSWGIPMYTFGGGTKLEIKR
notes: also called humanized 54.9D7 HC3 with the chimeric light chain
MFI [2]: 20

B3: h54.9D7 HC1 / Chi54.9D7 LC#1 (antibody, V domains shown)
VH: QVQLVQSGAEVKKPGASVKVSCKASGYIFITYWMNWVRQAPGQGLEWMGQIFPASGTTYYAQKFQGRVTMTRDTSTSTVYMELSSLRSEDTAVYYCARTDFYRYDGGYALDYWGQGTLVTVSS
VL: DIVLTQSPISLAVFLGQRATISCRASQSVSTSGYSSMHWYQQKAGQPPKLLIKYASDLESGVPVRFSGSGSGTDFILNIHPVEVEDIATYYCHHSWGIPMYTFGGGTKLEIKR
notes: also called humanized 54.9D7 HC1 with the chimeric light chain
MFI [2]: 21.3

B4: anti-IL1-RAP antibody clone 56.12G6 (antibody, V domains shown)
VH: RSNYSSLGAELVKPGASVTLSCEASGYTFTSYWIHWVKQRPGQGLEWIGEINPSHGHTTYNEKFKNKATLTVDKSSSTAYMQVSSLTSEDSAVYYCTRHYGSYYFDLWGQGTTLTVSS
VL: QIVLTQSPAIMSAFPGEKVTMTCRASSSVSYMHWYRQKSGTFPKRWIYDTSKLASGVPARFSGSGSGTSYSLTISSMEAEDAATYYCQQWSTNPITFGAGTKLELK
notes: Mouse monoclonal antibody
EC50 (read off the curve) [3]: ~0.6 µg/mL | EC50 (read off the curve) [4]: ~0.4 µg/mL | EC50 (read off the curve) [5]: ~0.9 µg/mL | EC50 (read off the curve) [6]: ~0.2 µg/mL | binding result [7]: no binding (tested: not given)

B5: Chi54.9D7 HC#1 / h54.9D7 LC2 (antibody, V domains shown)
VH: HVQLQQSGPELVRPGASVKLSCKASGYIFITYWMNWVKQRPGQGLEWVGQIFPASGTTYYNELFEGKATLTVDTSSNTAYMHLTSLTSEDSAVYYCARTDFYRYDGGYALDYWGQGTSLTVSS
VL: DIQLTQSPSSLSASVGDRATITCRASQSVSTSGYSSMHWYQQKPGKAPKLLIYYASDLESGVPSRFSGSGSGTDFTLTISSVQPEDFATYYCHHSWGIPMYTFGQGTKLEIKR
MFI [8]: 7.8

B6: anti-IL1-RAP antibody clone 54.9D7 (antibody, V domains shown)
VH: HVQLQQSGPELVRPGASVKLSCKASGYIFITYWMNWVKQRPGQGLEWVGQIFPASGTTYYNELFEGKATLTVDTSSNTAYMHLTSLTSEDSAVYYCARTDFYRYDGGYALDYWGQGTSLTVSS
VL: DIVLTQSPISLAVFLGQRATISCRASQSVSTSGYSSMHWYQQKAGQPPKLLIKYASDLESGVPVRFSGSGSGTDFILNIHPVEVEDIATYYCHHSWGIPMYTFGGGTKLEIKR
notes: Mouse monoclonal antibody from a hybridoma
IC50 of inhibition of IL-1β-induced NF-κB signaling, HEK-Blue IL-1β cells [9]: 0.0323 µg/mL | % Inhibition at 10 ug/mL of IL-1β-induced NF-κB signaling, HEK-Blue IL-1β cells [10]: 92.3% | IC50 of inhibition of IL-1β-induced NF-κB signaling, HEK-Blue IL-1β cells [10]: 0.03 µg/mL | binding result [7]: no binding (tested: not given)

B7: Chi54.9D7 HC#1 / h54.9D7 LC3 (antibody, V domains shown)
VH: HVQLQQSGPELVRPGASVKLSCKASGYIFITYWMNWVKQRPGQGLEWVGQIFPASGTTYYNELFEGKATLTVDTSSNTAYMHLTSLTSEDSAVYYCARTDFYRYDGGYALDYWGQGTSLTVSS
VL: DIQLTQSPSSLSASVGDRATITCRASQSVSTSGYSSMHWYQQKPGKAPKLLIKYASDLESGVPSRFSGSGSGTDFTLTISSVQPEDFATYYCHHSWGIPMYTFGQGTKLEIKR
notes: also called chimeric 54.9D7 heavy chain with humanized LC3
MFI [2]: 121

B8: humanized clone of 54.9D7 hH2L3 (antibody, V domains shown)
VH: QVQLVQSGAEVKKPGASVKVSCKASGYIFITYWMNWVRQAPGQGLEWVGQIFPASGTTYYAQKFQGRVTMTVDTSTSTVYMELSSLRSEDTAVYYCARTDFYRYDGGYALDYWGQGTLVTVSS
VL: DIQLTQSPSSLSASVGDRATITCRASQSVSTSGYSSMHWYQQKPGKAPKLLIKYASDLESGVPSRFSGSGSGTDFTLTISSVQPEDFATYYCHHSWGIPMYTFGQGTKLEIKR
notes: Humanized; also called 54.9D7 H2L3
Kd [11]: < 1 pM | koff [11]: < 1e-07 s⁻¹ | kon [11]: 141000 M⁻¹ s⁻¹ | Kd [12]: < 1 pM | koff [12]: < 1e-07 s⁻¹ | kon [12]: 169000 M⁻¹ s⁻¹ | MFI [2]: 124

B9: humanized clone of 54.9D7 hH3L3 (antibody, V domains shown)
VH: QVQLVQSGAEVKKPGASVKLSCKASGYIFITYWMNWVRQAPGQGLEWVGQIFPASGTTYYAQKFQGRATLTVDTSTSTAYMELSSLRSEDTAVYYCARTDFYRYDGGYALDYWGQGTLLTVSS
VL: DIQLTQSPSSLSASVGDRATITCRASQSVSTSGYSSMHWYQQKPGKAPKLLIKYASDLESGVPSRFSGSGSGTDFTLTISSVQPEDFATYYCHHSWGIPMYTFGQGTKLEIKR
notes: Humanized; also called 54.9D7 H3L3
Kd [11]: < 1 pM | koff [11]: < 1e-07 s⁻¹ | kon [11]: 177000 M⁻¹ s⁻¹ | Kd [12]: < 1 pM | koff [12]: < 1e-07 s⁻¹ | kon [12]: 193000 M⁻¹ s⁻¹ | MFI [2]: 94.3

B10: humanized clone of 54.9D7 hH1L3 (antibody, V domains shown)
VH: QVQLVQSGAEVKKPGASVKVSCKASGYIFITYWMNWVRQAPGQGLEWMGQIFPASGTTYYAQKFQGRVTMTRDTSTSTVYMELSSLRSEDTAVYYCARTDFYRYDGGYALDYWGQGTLVTVSS
VL: DIQLTQSPSSLSASVGDRATITCRASQSVSTSGYSSMHWYQQKPGKAPKLLIKYASDLESGVPSRFSGSGSGTDFTLTISSVQPEDFATYYCHHSWGIPMYTFGQGTKLEIKR
notes: Humanized; also called 54.9D7 H1L3
Kd [11]: 556 pM | koff [11]: 7.57e-05 s⁻¹ | kon [11]: 136000 M⁻¹ s⁻¹ | Kd [12]: 229 pM | koff [12]: 3.75e-05 s⁻¹ | kon [12]: 164000 M⁻¹ s⁻¹ | MFI [2]: 100
